Test results taken from patent publication US20040176301A1 (CYCLACEL, published 2004).
Where two headings read alike, the source gives them in different places. Each block holds one binder with its values, some of them ahead of it. Square brackets hold non-standard residues; d marks the D form. Ends that are not written are not given here. * marks the point of attachment. Biotin = O=C1N[C@H]2[C@H](CS[C@H]2CCCCC(=O)*)N1; Ahx = NCCCCCC(=O)O

Key:
Cyclin D1 [1] = biological target: T1, Cyclin D1 (UniProt P24385 1-295, limits assumed); assay: competitive ELISA: cyclin D1 binding to immobilised biotinyl-Ahx-p21(149-159)
T1 sequence (P24385 whole entry): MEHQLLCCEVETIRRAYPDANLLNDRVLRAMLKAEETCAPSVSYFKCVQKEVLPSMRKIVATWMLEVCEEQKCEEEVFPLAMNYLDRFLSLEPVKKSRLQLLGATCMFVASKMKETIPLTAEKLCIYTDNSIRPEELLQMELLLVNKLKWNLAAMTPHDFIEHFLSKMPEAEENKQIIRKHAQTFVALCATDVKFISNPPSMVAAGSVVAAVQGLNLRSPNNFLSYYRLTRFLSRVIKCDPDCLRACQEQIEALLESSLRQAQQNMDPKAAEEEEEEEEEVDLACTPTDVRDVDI
Excerpt: The amount of bound Cyclin D1/Cyclin A was immunodetected and quantified by Turbo-ELISA reagent (PIERCE).

CDK2/Cyclin E complex [2] = biological target: T2, CDK2/Cyclin E complex (UniProt P24941 1-298; P24864 1-410); assay: cell-based or functional assay
CDK4/Cyclin D1 complex [3] = biological target: T3, CDK4/Cyclin D1 complex (UniProt P11802 1-303; P24385 1-295); assay: cell-based or functional assay
T3 sequence (P11802 other isoform, or with tags, fused parts or gaps, chain 1 of 2): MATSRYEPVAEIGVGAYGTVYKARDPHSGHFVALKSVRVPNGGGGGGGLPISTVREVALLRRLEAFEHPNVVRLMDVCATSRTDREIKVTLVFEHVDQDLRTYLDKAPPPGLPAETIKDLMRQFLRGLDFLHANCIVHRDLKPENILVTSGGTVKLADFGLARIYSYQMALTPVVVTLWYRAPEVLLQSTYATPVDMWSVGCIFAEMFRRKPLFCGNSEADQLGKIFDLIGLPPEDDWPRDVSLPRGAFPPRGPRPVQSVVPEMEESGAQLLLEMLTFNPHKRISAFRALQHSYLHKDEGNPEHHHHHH
T3 sequence (P24385 whole entry, chain 2 of 2): as the sequence (P24385 whole entry) above

[4] = biological target: recombinant CDK2/cyclin A (UniProt P20248 1-432; P24941 1-298); assay: cell-based or functional assay
cyclin B = cyclin B (UniProt P14635 1-433); assay: pull-down with immobilised peptide
cyclin B, sequence (P14635 whole entry): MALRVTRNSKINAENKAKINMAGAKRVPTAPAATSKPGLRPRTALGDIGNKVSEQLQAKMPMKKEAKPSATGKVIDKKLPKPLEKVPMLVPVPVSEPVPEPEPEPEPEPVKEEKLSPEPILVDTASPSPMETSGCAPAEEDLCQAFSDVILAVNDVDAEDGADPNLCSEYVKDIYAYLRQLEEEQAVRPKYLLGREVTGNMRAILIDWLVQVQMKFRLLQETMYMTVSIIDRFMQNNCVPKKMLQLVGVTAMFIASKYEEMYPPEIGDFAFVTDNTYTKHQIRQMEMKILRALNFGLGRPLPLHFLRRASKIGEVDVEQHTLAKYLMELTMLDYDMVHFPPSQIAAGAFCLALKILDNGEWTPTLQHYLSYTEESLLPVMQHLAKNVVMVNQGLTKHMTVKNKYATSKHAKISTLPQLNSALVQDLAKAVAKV

CDK1/Cyclin B complex [5] = biological target: T4, CDK1/Cyclin B complex (UniProt P06493 1-297; P14635 1-433); assay: pull-down with immobilised peptide
T4 construct: also called CDK1-6×His/Cyclin B-6×His
T4 sequence (P06493 other isoform, or with tags, fused parts or gaps, chain 1 of 2): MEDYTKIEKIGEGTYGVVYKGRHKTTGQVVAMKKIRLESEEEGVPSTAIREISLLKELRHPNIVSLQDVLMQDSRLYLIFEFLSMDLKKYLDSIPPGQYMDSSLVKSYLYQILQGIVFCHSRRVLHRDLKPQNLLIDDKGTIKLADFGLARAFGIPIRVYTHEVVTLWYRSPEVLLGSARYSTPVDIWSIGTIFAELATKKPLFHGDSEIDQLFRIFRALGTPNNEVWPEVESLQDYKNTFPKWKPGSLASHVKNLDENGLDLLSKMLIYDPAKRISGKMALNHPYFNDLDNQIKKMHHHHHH
T4 sequence (P14635 other isoform, or with tags, fused parts or gaps, chain 2 of 2): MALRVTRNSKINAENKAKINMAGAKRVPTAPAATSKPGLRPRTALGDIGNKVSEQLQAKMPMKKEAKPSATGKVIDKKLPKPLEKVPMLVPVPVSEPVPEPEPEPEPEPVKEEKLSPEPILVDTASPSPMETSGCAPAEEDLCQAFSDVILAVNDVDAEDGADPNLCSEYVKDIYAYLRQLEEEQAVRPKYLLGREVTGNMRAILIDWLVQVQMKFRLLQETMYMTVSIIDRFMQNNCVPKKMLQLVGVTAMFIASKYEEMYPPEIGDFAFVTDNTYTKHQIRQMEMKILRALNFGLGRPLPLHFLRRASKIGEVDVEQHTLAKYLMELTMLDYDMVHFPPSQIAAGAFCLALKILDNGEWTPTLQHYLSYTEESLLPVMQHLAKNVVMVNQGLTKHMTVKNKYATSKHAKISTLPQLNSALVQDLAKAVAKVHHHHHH

CDK1/Cyclin B complex [6] = biological target: T4, CDK1/Cyclin B complex; assay: cell-based or functional assay
CDK2/Cyclin E complex [7] = biological target: T2, CDK2/Cyclin E complex; assay: cell-based or functional assay; remark: listed apart in the source
CDK4/Cyclin D1 complex [8] = biological target: T3, CDK4/Cyclin D1 complex; assay: cell-based or functional assay; remark: listed apart in the source
Cyclin A = Cyclin A (UniProt P20248 173-432, limits assumed); assay: competitive cyclin A binding ELISA, competitor: immobilised p21 peptide
Cyclin D1 [9] = biological target: T1, Cyclin D1; assay: pull-down, biotinylated peptide on streptavidin-agarose; SDS-PAGE, Western blot
Excerpt: (§1) The biotinylated peptide was pre-immobilised on streptavidin-agarose beads.

CDK4 = biological target: T5, CDK4 (UniProt P11802 1-303); assay: pull-down with biotinylated peptide on streptavidin-agarose beads; SDS-PAGE, Western blot
T5 construct: also called CDK4-6×His
T5 sequence (P11802 other isoform, or with tags, fused parts or gaps limits assumed): as the sequence (P11802 other isoform, or with tags, fused parts or gaps, chain 1 of 2) above
Excerpt: as §1

CDK2 = CDK2 (UniProt P24941 1-298); assay: as above
Excerpt: as §1
Throughout, for % Inhibition, cyclin D1/CDK4 kinase: test concentration or dose not given here.
Throughout, for % Inhibition, cyclin E/CDK2 kinase: test concentration or dose not given here.

B1: E2F1 peptide PVKRRLDL-NH2 (peptide)
peptide: PVKRRLDL-NH2
notes: Derived from E2F1
IC50 (Cyclin D1 [1]): > 100 µM
% Inhibition, cyclin E/CDK2 kinase (CDK2/Cyclin E complex [2]): 74%
IC50, cyclin E/CDK2 kinase (CDK2/Cyclin E complex [2]): 2.1 µM
% Inhibition, cyclin D1/CDK4 kinase (CDK4/Cyclin D1 complex [3]): 58%
IC50, cyclin D1/CDK4 kinase (CDK4/Cyclin D1 complex [3]): 99 µM

B2: Ac-Arg-Arg-Leu-Asn-Phe-NH2 (peptide)
peptide: Ac-RRLNF-NH2
Kinase IC50 (µM) CyclinA/CDK2 [4]: 37.2 µM

B6: P21 C-terminus-LDL hybrid HSKRRLDL-NH2 (peptide)
peptide: HSKRRLDL-NH2
IC50 (Cyclin D1 [1]): > 200 µM
% Inhibition, cyclin E/CDK2 kinase (CDK2/Cyclin E complex [2]): 74%
% Inhibition, cyclin D1/CDK4 kinase (CDK4/Cyclin D1 complex [3]): 24%

Further lines, results first:

binding result (cyclin B): no binding
binding result (CDK1/Cyclin B complex [5]): no binding
IC50, CDK1-Cyclin B phosphorylation of GST-Rb (CDK1/Cyclin B complex [6]): 200 µM
IC50, CDK1-Cyclin B phosphorylation of Histone 1 (CDK1/Cyclin B complex [6]): > 200 µM
% Inhibition, cyclin E/CDK2 kinase (CDK2/Cyclin E complex [7]): 80%
IC50, cyclin E/CDK2 kinase, GST-pRb (CDK2/Cyclin E complex [7]): 4.5 µM
% Inhibition, cyclin D1/CDK4 kinase (CDK4/Cyclin D1 complex [8]): 70%
IC50, cyclin D1/CDK4 kinase, GST-pRb (CDK4/Cyclin D1 complex [8]): 20 µM
B3: p21 (149-160) DFYHSKRRLIFS-NH2 (peptide)
peptide: DFYHSKRRLIFS-NH2

IC50 (Cyclin A): 9 µM
B4: GST-pRb(772-928) (other, UniProt P06400 772-928, looked up)
chain: ASTRPPTLSPIPHIPRSPYKFPSSPLRIPGGNIYISPLKSPYKISEGLPTPTKMTPRSRILVSIGESFGTSEKFQKINQMVCNSDRVLKRSAEGSNPPKPLKKLRFDIEGSDEADGSKHLPGESKFQQKLAEMTSTRTRMQKQKMNDSMDTSNKEEK
notes: range 772-928; Limits of the pRb part are printed inconsistently; also called GST-Rb; GST-Rb(772-928); not shown: glutathione S-transferase (GST) fusion partner

binding result (Cyclin D1 [9]): binds
binding result (CDK4): no binding
binding result (CDK2): no binding
B5: biotinyl-Ahx-Asp-Phe-Tyr-His-Ser-Lys-Arg-Arg-Leu-Ile-Phe-NH (peptide)
peptide: Biotin-[Ahx]DFYHSKRRLIF-NH2
SMILES: CC[C@H](C)[C@H](NC(=O)[C@H](CC(C)C)NC(=O)[C@H](CCCNC(=N)N)NC(=O)[C@H](CCCNC(=N)N)NC(=O)[C@H](CCCCN)NC(=O)[C@H](CO)NC(=O)[C@H](Cc1c[nH]cn1)NC(=O)[C@H](Cc1ccc(O)cc1)NC(=O)[C@H](Cc1ccccc1)NC(=O)[C@H](CC(=O)O)NC(=O)CCCCCNC(=O)CCCC[C@@H]1SC[C@@H]2NC(=O)N[C@@H]21)C(=O)N[C@@H](Cc1ccccc1)C(N)=O
notes: immobilised on streptavidin
